The values below are quoted from earlier work in PMC8481289.

The series has as its target UFC1 (Homo sapiens) (UniProt Q9Y3C8).

Chain of UFC1 (Homo sapiens) (Q9Y3C8 whole entry): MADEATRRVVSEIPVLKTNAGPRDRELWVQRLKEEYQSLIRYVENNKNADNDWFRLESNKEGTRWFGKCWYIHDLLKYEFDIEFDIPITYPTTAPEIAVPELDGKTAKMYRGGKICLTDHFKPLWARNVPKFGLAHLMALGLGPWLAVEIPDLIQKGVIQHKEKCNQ
Chain of UBA5 (Q9GZZ9 whole entry): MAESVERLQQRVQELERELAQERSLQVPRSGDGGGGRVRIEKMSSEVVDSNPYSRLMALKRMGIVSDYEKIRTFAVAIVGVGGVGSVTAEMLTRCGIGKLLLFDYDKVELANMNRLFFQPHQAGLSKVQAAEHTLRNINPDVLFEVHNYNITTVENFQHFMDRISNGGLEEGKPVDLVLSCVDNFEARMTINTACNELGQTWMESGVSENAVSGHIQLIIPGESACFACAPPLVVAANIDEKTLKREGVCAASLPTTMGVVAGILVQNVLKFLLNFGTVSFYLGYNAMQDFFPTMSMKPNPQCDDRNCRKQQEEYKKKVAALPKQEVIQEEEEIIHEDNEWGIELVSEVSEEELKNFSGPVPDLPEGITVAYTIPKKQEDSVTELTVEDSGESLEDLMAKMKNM

Regarding UBA5 (from UniProt Q9GZZ9), the Kd is 1000 nM.
